T1: Fe65 (UniProt O00213 1-710, limits assumed)
T1 construct: also called Fe65 adaptor protein; in vitro translated Fe65
T1 sequence (looked up): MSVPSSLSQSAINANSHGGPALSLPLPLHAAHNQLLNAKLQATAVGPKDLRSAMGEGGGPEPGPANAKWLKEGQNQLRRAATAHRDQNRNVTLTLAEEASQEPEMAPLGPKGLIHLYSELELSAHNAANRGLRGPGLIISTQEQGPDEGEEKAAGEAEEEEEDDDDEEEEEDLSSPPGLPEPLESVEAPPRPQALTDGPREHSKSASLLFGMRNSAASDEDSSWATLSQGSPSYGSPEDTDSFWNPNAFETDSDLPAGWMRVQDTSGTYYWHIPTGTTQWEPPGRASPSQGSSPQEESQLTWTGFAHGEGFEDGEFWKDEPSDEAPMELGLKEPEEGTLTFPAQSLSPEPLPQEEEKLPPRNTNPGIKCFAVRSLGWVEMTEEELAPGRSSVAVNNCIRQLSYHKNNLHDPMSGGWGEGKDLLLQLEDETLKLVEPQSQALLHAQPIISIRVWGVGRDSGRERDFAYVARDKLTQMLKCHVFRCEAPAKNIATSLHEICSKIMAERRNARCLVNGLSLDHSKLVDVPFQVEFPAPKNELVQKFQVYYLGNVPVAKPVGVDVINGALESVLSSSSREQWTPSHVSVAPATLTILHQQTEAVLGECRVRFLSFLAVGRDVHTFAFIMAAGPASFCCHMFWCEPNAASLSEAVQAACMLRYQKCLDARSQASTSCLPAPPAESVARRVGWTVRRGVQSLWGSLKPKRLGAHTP


Tests used:
Aβ release = details: exogenous RAP, cells overexpressing APP751; cited from earlier work
APP processing = experiment: Overexpression of Fe65 in APP751-transfected CHO cells, APPs and Aβ; type: cell-based; details: preliminary studies
From the text: In the second set of experiments, Inventors determine whether overexpression of Fe65 impairs APP and LRP processing by acting as a dominant or competitive negative mutant. Inventors briefly mentioned the preliminary results above with APPs and Aβ when Fe65 was overexpressed in APP75 1-transfected CHO cells. These studies are repeated for reliable quantitation and other aspects of APP trafficking are examined, as performed in the earlier aims. Inventors also assess the binding and uptake of LRP ligands. To ascertain that these outcomes are due to inhibition by Fe65, Inventors overexpress Fe65 mutants that cannot bind either APP or LRP, i.e., ΔPID2 and ΔPID 1, respectively. If these mutant constructs mimic the results from full length Fe65 even though it cannot bind it's known substrate, then it supports the idea that Fe65 or Fe65L in excess behaves as an inhibitor. […] The premise is that an overabundance of Fe65 result in the failure to link up limiting amounts of LRP with APP. Thus, co-expression of Fe65 with LRP should greatly diminish the effects of Fe65 expressed by itself In the third set of experiments, Inventors test the concept that other APP and LRP interacting proteins with only single binding sites, such as mDab, X11/Mint-1 and JIP-1, compete for binding with Fe65 or Fe65L, and by displacing Fe65, produce a partial loss of function with respect to APP processing. […]

Fe65 = target: T1, Fe65; experiment: GST pull down of in vitro translated Fe65

Molecule | reduction of binding against wild type LRP (Fe65) | also measured
RAP: 39 kDa receptor associated protein, an LRP chaperone molecule that blocks binding of all known LRP ligands (protein, UniProt P30533 35-357, looked up) Alpha-2-macroglobulin …: YSREKNQPKPSPKRESGEEFRMEKLNQLWEKAQRLHLPPVRLAELHADLKIQERDELAWKKLKLDGLDEDGEKEARLIRNLNVILAKYGLDGKKDARQVTSNSLSGTQEDGLDDPRLEKLWHKAKTSGKFSGEELDKLWREFLHHKEKVHEYNVLLETLSRTEEIHENVISPSDLSDIKGSVLHSRHTELKEKLRSINQGLDRLRRVSHQGYSTEAEFEEPRVIDLWDLAQSANLTDKELEAFREELKHFEAKIEKHNHYQKQLEIAHEKLRHAESVGDGERVSRSREKHALLEGRTKELGYTVKKHLQDLSGRISRARHNEL |  | Aβ release (Aβ release): dramatically reduced
Fe65: cytosolic adaptor protein with separate binding domains (PID1, PID2) for LRP and APP, overexpressed in cells (protein) MSVPSSLSQSAINANSHGGPALSLPLPLHAAHNQLLNAKLQATAVGPKDLRSAMGEGGGPEPGPANAKWLKEGQNQLRRAATAHRDQNRNVTLTLAEEASQEPEMAPLGPKGLIHLYSELELSAHNAANRGLRGPGLIISTQEQGPDEGEEKAAGEAEEEEEDDDDEEEEEDLSSPPGLPEPLESVEAPPRPQALTDGPREHSKSASLLFGMRNSAASDEDSSWATLSQGSPSYGSPEDTDSFWNPNAFETDSDLPAGWMRVQDTSGTYYWHIPTGTTQWEPPGRASPSQGSSPQEESQLTWTGFAHGEGFEDGEFWKDEPSDEAPMELGLKEPEEGTLTFPAQSLSPEPLPQEEEKLPPRNTNPGIKCFAVRSLGWVEMTEEELAPGRSSVAVNNCIRQLSYHKNNLHDPMSGGWGEGKDLLLQLEDETLKLVEPQSQALLHAQPIISIRVWGVGRDSGRERDFAYVARDKLTQMLKCHVFRCEAPAKNIATSLHEICSKIMAERRNARCLVNGLSLDHSKLVDVPFQVEFPAPKNELVQKFQVYYLGNVPVAKPVGVDVINGALESVLSSSSREQWTPSHVSVAPATLTILHQQTEAVLGECRVRFLSFLAVGRDVHTFAFIMAAGPASFCCHMFWCEPNAASLSEAVQAACMLRYQKCLDARSQASTSCLPAPPAESVARRVGWTVRRGVQSLWGSLKPKRLGAHTP |  | APPs secretion (APP processing): augmented; Aβ release (APP processing): reduction

The next lines start with results.

reduction of binding against wild type LRP (Fe65) | Molecule | also measured
> 50% | GST fusion protein of the LRP cytoplasmic tail with a single alanine substitution at L of the YATL motif (other, not shown: a dimerising Fc or GST; small tags and cut ends, N-terminal GST fusion, not carried in the letters, Position 4510 is derived from the motif's printed limits (4504 to 4510)) KRRVQGAKGFQHQRMTNGAMNVEIGNPTYKMYEGGEPDDVGGLLDADFALDPDKPTNFTNPVYATAYMGGHGSRHSLASTDEKRELLGRGPEDEIGDPLA | 
> 50% | GST fusion protein of the LRP cytoplasmic tail with a single alanine substitution at N of the second NPXY motif (other, not shown: a dimerising Fc or GST; small tags and cut ends, N-terminal GST fusion, not carried in the letters, Position 4504 is derived from the motif's printed limits (4504 to 4510)) KRRVQGAKGFQHQRMTNGAMNVEIGNPTYKMYEGGEPDDVGGLLDADFALDPDKPTNFTAPVYATLYMGGHGSRHSLASTDEKRELLGRGPEDEIGDPLA | 
> 50% | GST fusion protein of the LRP cytoplasmic tail with a single alanine substitution at Y of the second NPXY motif (other, not shown: a dimerising Fc or GST; small tags and cut ends, N-terminal GST fusion, not carried in the letters) KRRVQGAKGFQHQRMTNGAMNVEIGNPTYKMYEGGEPDDVGGLLDADFALDPDKPTNFTNPVAATLYMGGHGSRHSLASTDEKRELLGRGPEDEIGDPLA | 
